The source of these data is patent publication US20080176953A1, “Methods and compositions for treatment of ocular neovascularization and neural injury” (Allergan, Inc., priority 2000, published 2008).

One series relates to photoreceptors. The conditions noted are these: intravitreal injection of purified NGF; cited from earlier work.
For series [1], the system named is "wet" age-related macular degeneration (ARMD). The experiment in a line: Photodynamic therapy (verteporfin) combined with intravenous PEDF in a patient, Example 1. The format is in vivo. As to the method: The day of scheduled PDT treatment, the patient is administered 6 mg/M^2 of verteporfin. […] The treatment requires irradiation of the […].
A further series relates to brain neurons in culture. Conditions: cited from earlier work.
For a further series, the system named is retinoblastoma cells. The conditions noted are these: cited from earlier work.

Regarding “NGF: polypeptide known to have neuroprotective and neurotrophic effects”, in the series on photoreceptors, the survival of photoreceptors entry was “Increased survival of photoreceptors”.

B1: PEDF: polypeptide originally isolated from cultured fetal human retinal pigment epithelial cells, approximate molecular weight 50 kDa (protein, UniProt P36955 20-418, looked up)
Pigment epithelium-derived …: QNPASPPEEGSPDPDSTGALVEEEDPFFKVPVNKLAAAVSNFGYDLYRVRSSTSPTTNVLLSPLSVATALSALSLGAEQRTESIIHRALYYDLISSPDIHGTYKELLDTVTAPQKNLKSASRIVFEKKLRIKSSFVAPLEKSYGTRPRVLTGNPRLDLQEINNWVQAQMKGKLARSTKEIPDEISILLLGVAHFKGQWVTKFDSRKTSLEDFYLDEERTVRVPMMSDPKAVLRYGLDSDLSCKIAQLPLTGSMSIIFFLPLKVTQNLTLIEESLTSEFIHDIDRELKTVQAVLTVPKLKLSYEGEVTKSLQEMKLQSLFDSPDFSKITGKPIKLTQVEHRAGFEWNEDGAGTTPSPGLQPAHLTFPLDYHLNQPFIFVLRDTDTGALLFIGKILDPRGP
As for B1, the visual acuity result in series [1] (4 and 12 weeks following combined PDT and PEDF treatment) is reported as “no discernable loss of vision”. Also, the renewed neovascularization entry in series [1] (12 weeks following PDT treatment) is reported as “No evidence of renewed neovascularization”. For the same molecule, the “optic nerve axon loss” value in series [1] (after PDT with irradiation of the optic nerve) is listed as “no evidence of optic nerve axon loss”. Further, in series [1] (after one week and throughout the monitoring period), the “Fluorescein angiography, leakage in the treated tissue” value is “minimal leakage”. Further, the “visual inspection of the retina (affected areas)” value in series [1] (one week following PDT, continuing through 12 week monitoring, intravenous PEDF every two days, verteporfin 6 mg/M^2) was “healthy with no whitening”. The “life of brain neurons in culture” value in the series with brain neurons in culture is “prolongs the life”. The “protection against acute neurotoxic insult” value with brain neurons in culture (e.g., glutamate toxicity) is “protects neurons”. Besides, the “differentiation of the retinoblastoma cells” value in the series with retinoblastoma cells is listed as “induces differentiation”. Further, the “activity after heat incubation” value in the series with retinoblastoma cells (incubation of PEDF at 75° C.) is “does not prevent PEDF from differentiating retinoblastoma cells”. For the same molecule, the “elaboration of neuron-like processes” value in the series with retinoblastoma cells (undifferentiated retinoblastoma cells) is on record as “stimulate the elaboration of neuron-like processes”.
